Here are results for 1 substance from patent WO2009082624A2.

In this assay the target is human IL-23 receptor (huIL-23R/huIL-12Rβ1) on Baf3/KZ134/huIL-23R/huIL-12Rβ1 Clone 6 cells (human) (UniProt P42701). In words: cell-based or functional assay.
Sequence of human IL-23 receptor (huIL-23R/huIL-12Rβ1) on Baf3/KZ134/huIL-23R/huIL-12Rβ1 Clone 6 cells (human) (chain, as listed by the source, chain 1 of 2, other chains not shown): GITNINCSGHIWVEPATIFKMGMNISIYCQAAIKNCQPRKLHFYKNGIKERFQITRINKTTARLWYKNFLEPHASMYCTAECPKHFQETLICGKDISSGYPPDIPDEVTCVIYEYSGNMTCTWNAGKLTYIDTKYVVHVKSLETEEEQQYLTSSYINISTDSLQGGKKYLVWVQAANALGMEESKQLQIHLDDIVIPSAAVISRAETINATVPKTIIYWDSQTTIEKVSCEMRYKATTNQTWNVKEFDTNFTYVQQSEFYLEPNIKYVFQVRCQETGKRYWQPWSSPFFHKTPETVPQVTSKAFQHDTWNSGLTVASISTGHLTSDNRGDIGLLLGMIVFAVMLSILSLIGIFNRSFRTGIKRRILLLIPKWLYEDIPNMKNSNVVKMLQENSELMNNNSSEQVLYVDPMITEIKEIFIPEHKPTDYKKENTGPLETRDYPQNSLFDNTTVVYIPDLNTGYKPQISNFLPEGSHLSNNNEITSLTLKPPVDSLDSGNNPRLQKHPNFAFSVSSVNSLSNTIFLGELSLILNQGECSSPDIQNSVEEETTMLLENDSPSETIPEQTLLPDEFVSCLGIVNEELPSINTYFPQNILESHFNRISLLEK

As for “human IL-23 (p19/p40 heterodimer), recombinant (from UniProt Q9NPF7 20-189; P29460 23-328) (ligand)”, the EC50, STAT3 phosphorylation in Baf3/KZ134/huIL-23R/huIL-12Rβ1 Clone 6 cells (ZymoGenetics IL-23) was 20 pM and the EC50, STAT3 phosphorylation in Baf3/KZ134/huIL-23R/huIL-12Rβ1 Clone 6 cells (eBioscience IL-23) stood at 30 pM.
